Data on 12 molecules can be found in patent publication US12427210B2, “Compounds comprising a fibroblast activation protein ligand and use thereof” (priority 2019, dated 2025).

Bridge positions count the residues as written; N and C are the ends. * marks the point of attachment. Hexanoyl = CCCCCC(=O)*

The chains are these.
B1: alpha -dendrotoxin (protein)
chain: QPRRKLCILHRNPGRCYDKIPAFYYNQKKKQCERFDWSGCGGNSNRFKTIEECRRTCIG
B2: Cystatin C (protein)
chain: SSPGKPPRLVGGPMDASVEEEGVRRALDFAVGEYNKASNDMYHSRALQVVRARKQIVAGVNYFLDVELGRTTCTKTQPNLDNCPFHDQPHLKRKAFCSFQIYAVPWQGTMTLSKSTCQDA
B3: Hex-[Cys-(tMeBn(CuDOTA-AET))-Pro-Pro-Thr-Gln-Phe-Cys]-OH (3BP-4293) (peptide)
peptide: CPPTQFC
modifications: here or on the partner: N-terminal hexanoyl (Hex); Cys1 and Cys7 cyclised through tMeBn carrying CuDOTA-AET (copper(II) complex); free C-terminal acid (-OH)
B4: Hex-[Cys(tMeBn(LuDOTA-AET))-Pro-Pro-Thr-Gln-Phe-Cys]-OH (3BP-3624) (peptide)
peptide: CPPTQFC
modifications: here or on the partner: N-terminal hexanoyl (Hex); Cys1 and Cys7 cyclised through tMeBn carrying LuDOTA-AET (lutetium complex); free C-terminal acid (-OH)
B5: Hex-[Cys(tMeBn(GaDOTA-AET))-Pro-Pro-Thr-Gln-Phe-Cys]-OH (3BP-3949) (peptide)
peptide: CPPTQFC
modifications: here or on the partner: N-terminal hexanoyl (Hex); Cys1 and Cys7 cyclised through tMeBn carrying GaDOTA-AET (gallium complex); free C-terminal acid (-OH)
B6: Hex-[Cys-(tMeBn(ZnDOTA-AET))-Pro-Pro-Thr-Gln-Phe-Cys]-OH (3BP-4343) (peptide)
peptide: Hexanoyl-CPPTQFC-OH
modifications: bridge 1-7; not fully specified (bridges); printed as Hex-[Cys-(tMeBn(ZnDOTA-AET))-Pro-Pro-Thr-Gln-Phe-Cys]-OH; also: zinc complex (ZnDOTA) of 3BP-3554
B7: Hex-[Cys(tMeBn(EuDOTA-AET))-Pro-Pro-Thr-Gln-Phe-Cys]-OH (3BP-3662) (peptide)
peptide: CPPTQFC
modifications: here or on the partner: N-terminal hexanoyl (Hex); Cys1 and Cys7 cyclised through tMeBn carrying EuDOTA-AET (europium complex); free C-terminal acid (-OH)
B8: Hex-[Cys(tMeBn(InDOTA-AET))-Pro-Pro-Thr-Gln-Phe-Cys]-OH (3BP-3623) (peptide)
peptide: CPPTQFC
modifications: here or on the partner: N-terminal hexanoyl (Hex); Cys1 and Cys7 cyclised through tMeBn carrying InDOTA-AET (indium complex); free C-terminal acid (-OH)
B9: Hex-[Cys(tMeBn(InDOTA-PP))-Pro-Pro-Thr-Gln-Phe-Cys]-Asp-NH2 (3BP-3590) (peptide)
peptide: CPPTQFCD
modifications: N-terminal hexanoyl (Hex); Cys1 and Cys7 cyclised through tMeBn carrying InDOTA-PP (indium complex); C-terminal amide
B10: Hex-[Cys(tMeBn(LuDOTA-PP))-Pro-Pro-Thr-Gln-Phe-Cys]-Asp-NH2 (3BP-3591) (peptide)
peptide: CPPTQFCD
modifications: N-terminal hexanoyl (Hex); Cys1 and Cys7 cyclised through tMeBn carrying LuDOTA-PP (lutetium complex); C-terminal amide
B11: Hex-[Cys(tMeBn(GaDOTA-PP))-Pro-Pro-Thr-Gln-Phe-Cys]-Asp-NH2 (3BP-3592) (peptide)
peptide: CPPTQFCD
modifications: N-terminal hexanoyl (Hex); Cys1 and Cys7 cyclised through tMeBn carrying GaDOTA-PP (gallium complex); C-terminal amide
B12: Hex-[Cys(tMeBn(EuDOTA-PP))-Pro-Pro-Thr-Gln-Phe-Cys]-Asp-NH2 (3BP-3661) (peptide)
peptide: CPPTQFCD
modifications: N-terminal hexanoyl (Hex); Cys1 and Cys7 cyclised through tMeBn carrying EuDOTA-PP (europium complex); C-terminal amide

The target in one assay is KV channel. The experiment in a line: radioligand displacement, reference compound of the assay (Ki Ref).
Details: not given
B1 had a Ki of 0.097 nM.

The next assay deals with T1, Cathepsin F (Homo sapiens (Human)) (UniProt Q9UBX1).
T1 sequence: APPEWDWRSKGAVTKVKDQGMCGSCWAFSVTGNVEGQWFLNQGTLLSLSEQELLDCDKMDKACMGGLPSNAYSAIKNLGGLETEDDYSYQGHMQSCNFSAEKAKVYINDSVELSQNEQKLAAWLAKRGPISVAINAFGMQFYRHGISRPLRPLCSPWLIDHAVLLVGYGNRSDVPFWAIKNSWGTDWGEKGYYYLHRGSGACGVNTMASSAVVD
Assay: not given
Details: not given
On to B2, for which the Percentage inhibition (%), Reference (% inhibition at 1 µM) amounted to 74.

Another assay concerns the target human fibroblast activation protein (FAP) on human WI-38 fibroblasts (human). The experiment in a line: competitive FACS binding on FAP-expressing WI-38 cells against 3 nM Cy5-labeled compound; category A = pIC50 values >8.0. The following applies: remark: other sources report otherwise. In general terms: Flow cytometry measures light scatter and fluorescence of single cells or particles in a stream.
B3 gave a pIC50 Category (FACS) of more than 8 pIC50.

In the case of B4, the pIC50 Category (FACS) is more than 8 pIC50.

B5 yielded a pIC50 Category (FACS) of more than 8 pIC50.

The molecule B6 registered a pIC50 Category (FACS) of more than 8 pIC50.

In turn, B7 registered a pIC50 Category (FACS) of more than 8 pIC50.

For the molecule B8, the pIC50 Category (FACS) is more than 8 pIC50.

In the next assay the target is Recombinant human FAP (R&D systems, #3715-SE) (human).
Sequence of Recombinant human FAP (R&D systems, #3715-SE) (human) (chain, as listed by the source limits assumed): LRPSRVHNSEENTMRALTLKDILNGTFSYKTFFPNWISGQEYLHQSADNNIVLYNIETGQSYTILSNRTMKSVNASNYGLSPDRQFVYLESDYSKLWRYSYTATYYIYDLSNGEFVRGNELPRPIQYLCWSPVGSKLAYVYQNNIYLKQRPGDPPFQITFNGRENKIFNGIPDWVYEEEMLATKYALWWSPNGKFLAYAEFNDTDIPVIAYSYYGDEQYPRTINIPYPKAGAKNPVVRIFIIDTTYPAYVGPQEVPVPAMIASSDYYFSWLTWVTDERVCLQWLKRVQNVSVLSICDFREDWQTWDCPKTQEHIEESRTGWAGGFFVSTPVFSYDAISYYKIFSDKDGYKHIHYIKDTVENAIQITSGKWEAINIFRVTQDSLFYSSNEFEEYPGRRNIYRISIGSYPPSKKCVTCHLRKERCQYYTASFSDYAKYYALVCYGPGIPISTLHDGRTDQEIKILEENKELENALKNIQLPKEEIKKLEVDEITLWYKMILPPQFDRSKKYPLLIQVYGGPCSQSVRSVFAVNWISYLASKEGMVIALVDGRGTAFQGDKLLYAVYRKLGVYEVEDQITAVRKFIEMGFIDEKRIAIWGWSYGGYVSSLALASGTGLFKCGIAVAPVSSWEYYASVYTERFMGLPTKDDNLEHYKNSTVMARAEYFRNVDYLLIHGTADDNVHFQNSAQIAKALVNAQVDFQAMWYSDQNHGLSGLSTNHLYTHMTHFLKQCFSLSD
Assay: not given
Details: not given
B9: the pIC50 Category (Activity) is more than 8 pIC50.

Take B10: the pIC50 Category (Activity) is more than 8 pIC50.

Consider B11, for which the pIC50 Category (Activity) was more than 8 pIC50.

In the case of B12, the pIC50 Category (Activity) is more than 8 pIC50.

The term Ki denotes a measure of affinity in units of concentration, obtained from inhibition or displacement. A higher Ki goes with lower affinity.
